# Laboratory results reported in patent publication US20250361274A1, “PEPTIDE AND PEPTIDE-CONTAINING AGENT” (PEPTIDREAM INC., priority 2022, published 2025).
# Numbered stars: 1 amine (or outer) side, 2 acyl side, 3 side chain; on linkers, the order of the positions; unused ones are H or OH. Bridge positions count the residues as written; N and C are the ends. Square brackets hold non-standard residues; d marks the D form. Ends that are not written are not given here. Peptide text beside a SMILES is read from it. KCOpipzaa = N6-(4-(carboxymethyl)piperazine-1-carbonyl)-L-lysine, O=C(NCCCC[C@H](N[*:1])C(=O)[*:2])N1CCN(CC(=O)[*:3])CC1; 3Pal(6-Ph) = N[C@@H](Cc1ccc(-c2ccccc2)nc1)C(=O)O; X3 = O=C(C[C@@H](Cc1ccc(F)cc1)C(=O)[*:1])C[*:2]; Phe(4-COOH) = N[C@@H](Cc1ccc(C(=O)O)cc1)C(=O)O; NMePhe(3-Me) = CN[C@@H](Cc1cccc(C)c1)C(=O)O; NMePhe(4-Me) = CN[C@@H](Cc1ccc(C)cc1)C(=O)O; Bip = N[C@@H](Cc1ccc(-c2ccccc2)cc1)C(=O)O; Phe(3-Cl) = N[C@@H](Cc1cccc(Cl)c1)C(=O)O; Nle(6-COOH) = N[C@@H](CCCCC(=O)O)C(=O)O; X1 = N=C(CN)NCCC[C@H](N[*:1])C(=O)[*:2]; cisHyp = O=C(O)[C@@H]1C[C@H](O)CN1; NMeF = CN[C@@H](Cc1ccccc1)C(=O)O; 4Pal = N[C@@H](Cc1ccncc1)C(=O)O; Aad = N[C@@H](CCCC(=O)O)C(=O)O; Cha = N[C@@H](CC1CCCCC1)C(=O)O; β3hC = N[C@@H](CS)CC(=O)O; βAla = NCCC(=O)O
# Columns and labels:
# [1] = target: T1, BMP7 (Homo sapiens, UniProt P18075); assay: BMP7 signal transduction inhibitory activity: SMAD1 phosphorylation by BMP7 stimulus, A549 cells; type: cell-based; conditions: for aLISA BMP7: A549 cells
# T1 sequence (P18075 293-431): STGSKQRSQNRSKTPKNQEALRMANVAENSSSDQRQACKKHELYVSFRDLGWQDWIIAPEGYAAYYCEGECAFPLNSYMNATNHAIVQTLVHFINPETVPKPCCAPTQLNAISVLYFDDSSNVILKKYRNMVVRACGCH
# Summary of the method: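 A549 cells were stimulated with 10 nM BMP7, and peptide inhibition of signalling was measured as SMAD1 phosphorylation. Peptides were tested at three concentrations, in sets ranging from 1–100 nM to 100–1,000 nM, or as eight-point 1/3 dilution series starting at 100 nM or 1,000 nM.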
# [2] = target: T2, BMP4 (Homo sapiens, UniProt P12644); assay: BMP4 signal transduction inhibitory activity: SMAD1 phosphorylation by BMP4 stimulus, AlphaLISA SureFire, A549 cells; type: cell-based; conditions: for aLISA BMP4: A549 cells
# T2 sequence (P12644 293-408): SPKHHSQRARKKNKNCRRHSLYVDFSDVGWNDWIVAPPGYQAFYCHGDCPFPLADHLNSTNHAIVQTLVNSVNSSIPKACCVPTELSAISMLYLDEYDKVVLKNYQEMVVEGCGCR
# [3] = inhibition of SMAD1 phosphorylation by BMP7 stimulus, peptides of Synthesis 2, classes A-D, ND
# [4] = inhibition of SMAD1 phosphorylation by BMP4 stimulus, peptides of Synthesis 2, classes A-C, ND
# [5] = BMP7 10 nM stimulus, peptide conc. in assay 10, 30, 90 nM
# [6] = BMP4 0.2 nM stimulus, peptide conc. in assay 2, 20, 200 nM
molecule,measurement,setting,value
CC(C)C[C@@H]1NC(=O)[C@H](Cc2ccc(O)cc2)NC(=O)[C@H](C(C)C)NC(=O)[C@H](CCCNC(=N)N)NC(=O)[C@H](CCCCC(=O)O)NC(=O)CSC[C@@H](C(=O)NCC(N)=O)NC(=O)[C@H](CO)NC(=O)[C@H](Cc2ccc(C(=O)O)cc2)NC(=O)[C@H](Cc2ccc(C(=O)O)cc2)NC(=O)[C@H](Cc2ccc(O)cc2)NC(=O)[C@H](Cc2ccc(-c3ccccc3)cc2)NC(=O)[C@H](C(C)C)NC(=O)[C@H](Cc2ccc(O)cc2)NC(=O)[C@H](CO)NC(=O)[C@H](Cc2ccc(-c3ccccc3)nc2)NC(=O)[C@H](CCCNC(=N)CN)NC(=O)[C@H](CC(=O)O)NC1=O [SEQ ID No. 87] ({CH2CO}-[Nle(6-COOH)]RVYLD[X1][3Pal(6-Ph)]SYV[Bip]Y[Phe(4-COOH)][Phe(4-COOH)]SCG-NH2; thioether N-17),BMP7 inhibitory activity (in words),[1],does not inhibit signal transduction of BMP7
same,aLISA BMP7,[1]; [3],ND (the inhibitory activity was less than 30% at the maximum concentration evaluated)
same,BMP4 inhibitory activity (in words),[2],same level of the BMP4 inhibitory activity as Noggin
same,aLISA BMP4,[2]; [4],A (showed an inhibitory activity of 50% or more in a zone to which the peptide was added to in an amount of 0.2 nM)
386 (FG[NMePhe(3-Me)]G[Bip]GDD[Cha]A[NMeF]LHCG-NH2; not fully specified) [compound 386],aLISA BMP7 (10 nM) % inh,[1]; [5],F (showed less than 30% of inhibitory activity in 10 nM-addition zone and showed 30% or more of inhibitory activity in 30 nM-addition zone)
same,aLISA BMP4 (0.2 nM) % inh,[2]; [6],B (showed less than 30% of inhibitory activity in 20 nM-addition zone and showed 30% or more of inhibitory activity in 200 nM-addition zone)
"Cc1ccc(C[C@H]2C(=O)N[C@@H](CC(C)C)C(=O)N3C[C@@H](O)C[C@H]3C(=O)N[C@H](CC(=O)NCCC(=O)N[C@H](CCC(=O)O)C(=O)O)CSCC(=O)C[C@@H](Cc3ccc(F)cc3)C(=O)NCC(=O)N(C)[C@@H](Cc3ccccc3)C(=O)NCC(=O)N[C@@H](Cc3ccc(-c4ccccc4)nc3)C(=O)NCC(=O)N[C@@H](CC(=O)O)C(=O)N[C@@H](CCC(=O)O)C(=O)N[C@@H](CC3CCCCC3)C(=O)N[C@@H](CCCC(=O)O)C(=O)N2C)cc1 [SEQ ID No. 417, ClAc-F4F-G-MeF-G-3Py6Ph-G-D-E-Cha-Hgl-MeF4Me-L-P4Sh-C-bA-de-OH] (G[NMeF]G[3Pal(6-Ph)]GDE[Cha][Aad][NMePhe(4-Me)]L[cisHyp][β3hC][βAla][dE]-OH; linker N-13 via X3)",BMP7 inhibitory activity (in words),[1],same level of the BMP7 inhibitory activity as Noggin
same,aLISA BMP7,"[1]; 10 nM BMP7, peptides of Synthesis 2, peptide 1, 10, 100 nM",C (showed less than 50% of inhibitory activity in 10 nM-addition zone and showed 50% or more of inhibitory activity in 100 nM-addition zone)
same,BMP4 inhibitory activity (in words),[2],does not inhibit signal transduction of BMP 4
same,aLISA BMP4,"[2]; SMAD1 phosphorylation, peptides of Synthesis 2, peptide 0.02, 0.2, 2 nM",A (showed an inhibitory activity of 50% or more in a zone to which the peptide was added to in an amount of 0.2 nM)
"342 (FG[NMeF]G[Bip]GDD[Cha]T[NMeF]LHCG-NH2; not fully specified (N-terminus, bridges)) [compound 342]",aLISA BMP7 (10 nM) % inh,"[1]; SMAD1 phosphorylation, BMP7 10 nM, peptide conc. in assay 1, 10, 100 nM",D (showed less than 30% of inhibitory activity in 10 nM-addition zone and showed 30% or more of inhibitory activity in 100 nM-addition zone)
same,aLISA BMP4 (0.2 nM) % inh,"[2]; SMAD1 phosphorylation, BMP4 0.2 nM, peptide conc. in assay 0.2, 2, 20 nM",ND (the inhibitory activity was less than 30% at the maximum concentration evaluated)
62 (Ac-A[KCOpipzaa]VYVD[KCOpipzaa][Bip]PYP[Bip][4Pal][Phe(4-COOH)][Phe(4-COOH)]SCG-NH2; thioether (positions not given here); not fully specified (bridges)) [compound 62],aLISA BMP7,"[1]; inhibition of SMAD1 phosphorylation by BMP7 stimulus, AlphaLISA, class by peptide concentration zone",ND (the inhibitory activity was less than 30% at the maximum concentration evaluated)
same,aLISA BMP4,"[2]; inhibition of SMAD1 phosphorylation by BMP4 stimulus, AlphaLISA, class by peptide concentration zone",D (showed inhibitory activity of less than 50% in 2 nM-addition zone)
"372 ([Phe(3-Cl)]G[NMeF]G[Bip]GDD[Cha]A[NMeF]LHCG-NH2; not fully specified (N-terminus, bridges); also: cyclic peptide, linkage not given here) [compound 372]",aLISA BMP7 (10 nM) % inh,[1]; [5],G (showed less than 30% of inhibitory activity in 30 nM-addition zone and showed 30% or more of inhibitory activity in 90 nM-addition zone)
same,aLISA BMP4 (0.2 nM) % inh,[2]; [6],ND (the inhibitory activity was less than 30% at the maximum concentration evaluated)
103 ({CH2CO}-ERV[Phe(4-COOH)]V[KCOpipzaa]R[Bip]SYP[Bip]Y[Phe(4-COOH)][Phe(4-COOH)]SC[βAla][dE]-OH; thioether N-17; not fully specified) [compound 103],aLISA BMP7,[1]; [3],A (showed 50% or more of inhibitory activity in a zone to which the peptide was added in an amount of 1 nM)
same,aLISA BMP4,[2]; [4],A (showed an inhibitory activity of 50% or more in a zone to which the peptide was added to in an amount of 0.2 nM)
